This note sets out measurements from US20220031857A1 (OSSIANIX, published 2022).

Sequences and labels used below:
T1: recombinant mouse TfR2 (mouse, UniProt Q9JKX3 103-798, limits assumed)
T1 construct: Negative control protein
T1 sequence (looked up): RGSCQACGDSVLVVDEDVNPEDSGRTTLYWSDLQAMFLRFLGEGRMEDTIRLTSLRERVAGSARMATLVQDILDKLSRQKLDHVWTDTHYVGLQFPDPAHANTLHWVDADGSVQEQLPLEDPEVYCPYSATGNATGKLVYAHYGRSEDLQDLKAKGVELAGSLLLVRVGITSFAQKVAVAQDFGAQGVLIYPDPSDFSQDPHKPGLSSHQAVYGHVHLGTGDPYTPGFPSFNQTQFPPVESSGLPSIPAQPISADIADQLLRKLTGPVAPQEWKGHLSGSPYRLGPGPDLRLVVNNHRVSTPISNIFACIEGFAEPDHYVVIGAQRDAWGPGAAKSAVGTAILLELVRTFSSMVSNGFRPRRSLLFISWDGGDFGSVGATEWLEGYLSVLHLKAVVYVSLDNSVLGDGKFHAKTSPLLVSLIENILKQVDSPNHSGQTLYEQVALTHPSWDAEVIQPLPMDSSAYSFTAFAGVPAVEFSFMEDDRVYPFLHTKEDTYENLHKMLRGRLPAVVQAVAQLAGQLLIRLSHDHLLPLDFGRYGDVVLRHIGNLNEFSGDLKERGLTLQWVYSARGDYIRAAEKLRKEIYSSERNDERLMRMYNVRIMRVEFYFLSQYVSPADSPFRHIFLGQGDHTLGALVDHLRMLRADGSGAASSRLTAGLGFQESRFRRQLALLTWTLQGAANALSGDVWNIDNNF

B1: SEQ ID NO 44 (VNAR clone displayed on phage) (VNAR)
VNAR: ARVDQTPRSVTKETGESLTINCVLRDASYALGSTCWYRKKSGSTNEESISKGGRYVETVNSGSKSFSLRINDLTVEDGGTYRCGVCQCWSANVWVDCDMTSTSIRMRDGSRSNARAACGDGTAVTVNA
notes: shark VNAR domain on M13 phage; coat-protein fusion not described
B2: SEQ ID NO 50 (VNAR clone displayed on phage) (VNAR)
VNAR: ARVDQTPRSVTKETGESLTINCVLRDASYALGSTCWYRKKSGSTNEESISKGGRYVETVNSGSKSFSLRINDLTVEDGGTYRCGVMNNVSQTWVRCDSQVMSQQCVQQSAACGDGTAVTVNA
notes: as for B1
B3: SEQ ID NO 51 (VNAR clone displayed on phage) (VNAR)
VNAR: ARVDQTPRSVTKETGESLTINCVLRDASYALGSTCWYRKKSGSTNEESISKGGRYVETVNSGSKSFSLRINDLTVEDSGTYRCNVIQYLYLGSYFACDVYGGGTVVTVNA
notes: as for B1
B4: SEQ ID NO 48 (VNAR clone displayed on phage) (VNAR)
VNAR: ARVDQTPRSVTKETGESLTINCVLRDASYELGSTCWYRKKSGSTNEESISKGGRYVETVNSGSKSFSLRINDLTVEDGGTYRCGASLQCGNCELCDREQLQCGGQRGQLAACGDGTAVTVNA
notes: as for B1
B5: SEQ ID NO 47 (VNAR clone displayed on phage) (VNAR)
VNAR: ARVDQTPRSVTKETGESLTINCVLRDASYALGSTCWYRKKSGSTNEESISKGGRYVETVNSGSKSFSLRINDLTVEDGGTYRCGAAIQGFWAGRCDNLPGKCVMQVSNAAACGDGTAVTVNA
notes: as for B1
B6: SEQ ID NO 45 (VNAR clone displayed on phage) (VNAR)
VNAR: ARVDQTPRSVTKETGESLTINCVLRDASYALGSTCWYRKKSGSTNEESISKGGRYVETVNSGSKSFSLRINDLTVEDGGTYRCGVCESSFCSLPYDCDSSSAGSVIQPFGHIVSLAACGDGTAVTVNA
notes: as for B1
B7: SEQ ID NO 49 (VNAR clone displayed on phage) (VNAR)
VNAR: ARVDQTPRSVTKETGESLTINCVLRDASYELGSTCWYRKKSGSTNEESISKGGRYVETVNSGSKSFSLRINDLTVEDGGTYRCGVISQYKSYTLWCDALYRSLGCECARAACGDGTAVTVNA
notes: as for B1

For one assay, the target named is T2, recombinant human TfR1 (transferrin receptor 1) (human, UniProt P02786 89-760).
T2 construct: Bought recombinant His-tagged protein; also called hTfR1
T2 sequence (P02786 89-760 limits assumed): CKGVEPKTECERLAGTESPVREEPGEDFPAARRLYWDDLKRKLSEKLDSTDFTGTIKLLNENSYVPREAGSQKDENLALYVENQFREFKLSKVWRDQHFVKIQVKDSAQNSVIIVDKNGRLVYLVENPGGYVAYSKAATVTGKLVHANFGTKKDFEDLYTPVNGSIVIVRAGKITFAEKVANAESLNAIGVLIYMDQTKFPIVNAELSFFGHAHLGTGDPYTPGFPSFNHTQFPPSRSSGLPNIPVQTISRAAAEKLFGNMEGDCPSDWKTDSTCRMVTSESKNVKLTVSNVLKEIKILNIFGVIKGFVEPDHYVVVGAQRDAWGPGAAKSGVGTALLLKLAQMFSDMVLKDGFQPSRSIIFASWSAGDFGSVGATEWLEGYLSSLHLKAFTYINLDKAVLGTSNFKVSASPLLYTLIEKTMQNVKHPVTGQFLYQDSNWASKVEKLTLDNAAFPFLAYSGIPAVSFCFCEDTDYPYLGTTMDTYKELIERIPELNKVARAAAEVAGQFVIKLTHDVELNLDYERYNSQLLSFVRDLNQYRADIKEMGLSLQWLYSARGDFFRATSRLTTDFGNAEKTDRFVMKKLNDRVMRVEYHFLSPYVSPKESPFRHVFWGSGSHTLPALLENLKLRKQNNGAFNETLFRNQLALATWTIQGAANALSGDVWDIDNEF
Kind of assay: phage ELISA. (In general: ELISA stands for enzyme-linked immunosorbent assay.)
For the molecule B1, the binding result is “binds”.

For B2, the binding result is “binds”.

On to B3, for which the binding result is reported as “binds”.

Turning to B4, the binding result is recorded as “binds”.

B5: the binding result is recorded as “binds”.

Take B6: the binding result was “binds”.

As for B7, the binding result was “binds”.

The target in a further assay is T1, recombinant mouse TfR2. Kind of assay: phage ELISA.
Consider B1, for which the binding result was “no binding”.

In the case of B2, the binding result is “no binding”.

Consider B3, for which the binding result was “no binding”.

Consider B4, for which the binding result is “no binding”.

Regarding B5, the binding result was “no binding”.

For B6, the binding result is given as “no binding”.

As for B7, the binding result is on record as “no binding”.

The target of the next assay is T3, recombinant mouse TfR1 (transferrin receptor 1) (mouse, UniProt Q62351 89-763).
T3 construct: Bought recombinant His-tagged protein; also called mTfR1
T3 sequence (Q62351 89-763 limits assumed): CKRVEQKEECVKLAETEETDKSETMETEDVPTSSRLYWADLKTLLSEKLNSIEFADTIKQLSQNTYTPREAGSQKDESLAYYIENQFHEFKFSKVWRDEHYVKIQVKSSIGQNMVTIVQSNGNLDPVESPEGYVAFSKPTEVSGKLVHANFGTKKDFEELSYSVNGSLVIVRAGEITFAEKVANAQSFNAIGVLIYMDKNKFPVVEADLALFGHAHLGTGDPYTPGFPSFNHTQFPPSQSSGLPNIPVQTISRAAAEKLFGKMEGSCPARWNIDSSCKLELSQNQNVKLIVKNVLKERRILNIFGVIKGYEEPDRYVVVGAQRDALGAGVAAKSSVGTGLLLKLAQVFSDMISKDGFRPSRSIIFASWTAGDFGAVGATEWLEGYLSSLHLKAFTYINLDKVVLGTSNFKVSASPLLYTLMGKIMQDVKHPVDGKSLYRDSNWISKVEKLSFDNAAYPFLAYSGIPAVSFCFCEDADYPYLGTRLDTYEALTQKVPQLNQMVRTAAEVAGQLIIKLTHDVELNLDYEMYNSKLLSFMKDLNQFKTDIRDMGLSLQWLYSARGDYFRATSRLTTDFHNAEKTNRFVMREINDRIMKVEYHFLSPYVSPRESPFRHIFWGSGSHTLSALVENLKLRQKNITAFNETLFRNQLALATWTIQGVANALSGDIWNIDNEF
Kind of assay: phage ELISA.
With B1, the binding result is listed as “binds”.

Turning to B2, the binding result was “binds”.

In the case of B3, the binding result is “binds”.

Consider B4, for which the binding result is “binds”.

On to B5, for which the binding result is given as “binds”.

For the molecule B6, the binding result is listed as “binds”.

Regarding B7, the binding result is “binds”.

For a further assay, the target named is T4, human serum albumin (human, UniProt P02768 25-609).
T4 construct: Negative control protein; also called HSA
T4 sequence (P02768 25-609 limits assumed): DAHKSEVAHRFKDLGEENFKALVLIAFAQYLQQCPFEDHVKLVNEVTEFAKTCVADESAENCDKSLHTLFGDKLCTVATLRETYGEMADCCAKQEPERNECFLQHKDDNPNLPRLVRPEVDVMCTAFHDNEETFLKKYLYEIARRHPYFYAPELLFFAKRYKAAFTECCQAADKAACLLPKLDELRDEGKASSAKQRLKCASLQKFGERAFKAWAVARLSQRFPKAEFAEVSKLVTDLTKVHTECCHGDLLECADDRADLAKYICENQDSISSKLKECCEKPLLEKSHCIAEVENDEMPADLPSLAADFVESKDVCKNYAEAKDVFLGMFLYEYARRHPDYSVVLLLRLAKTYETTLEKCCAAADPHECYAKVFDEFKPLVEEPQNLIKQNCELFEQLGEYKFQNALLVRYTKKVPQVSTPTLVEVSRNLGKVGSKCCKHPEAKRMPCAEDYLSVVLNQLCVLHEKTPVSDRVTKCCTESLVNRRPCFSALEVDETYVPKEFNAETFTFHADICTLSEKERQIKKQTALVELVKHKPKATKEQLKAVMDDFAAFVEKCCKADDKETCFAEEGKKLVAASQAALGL
Kind of assay: phage ELISA.
Regarding B1, the binding result is given as “no binding”.

On to B2, for which the binding result was “no binding”.

With B3, the binding result was “no binding”.

B4: the binding result was “no binding”.

As to B5, the binding result is recorded as “no binding”.

For the molecule B6, the binding result is “no binding”.

Take B7: the binding result is reported as “no binding”.
